Assay results reported in US20200261595A1 (Novo Nordisk, published 2020).

Experiments:
insulin receptor A = insulin receptor A (UniProt P06213-2 28-1370, limits assumed); assay: insulin receptor binding assay as in Vienberg et al. 2011; relative to human insulin on insulin receptor A (100%)
[1] = molecular target: insulin receptor of isolated rat adipocytes (rat, UniProt P15127 27-1383); assay: cell-based or functional assay
Chain of insulin receptor of isolated rat adipocytes (P15127 27-1383): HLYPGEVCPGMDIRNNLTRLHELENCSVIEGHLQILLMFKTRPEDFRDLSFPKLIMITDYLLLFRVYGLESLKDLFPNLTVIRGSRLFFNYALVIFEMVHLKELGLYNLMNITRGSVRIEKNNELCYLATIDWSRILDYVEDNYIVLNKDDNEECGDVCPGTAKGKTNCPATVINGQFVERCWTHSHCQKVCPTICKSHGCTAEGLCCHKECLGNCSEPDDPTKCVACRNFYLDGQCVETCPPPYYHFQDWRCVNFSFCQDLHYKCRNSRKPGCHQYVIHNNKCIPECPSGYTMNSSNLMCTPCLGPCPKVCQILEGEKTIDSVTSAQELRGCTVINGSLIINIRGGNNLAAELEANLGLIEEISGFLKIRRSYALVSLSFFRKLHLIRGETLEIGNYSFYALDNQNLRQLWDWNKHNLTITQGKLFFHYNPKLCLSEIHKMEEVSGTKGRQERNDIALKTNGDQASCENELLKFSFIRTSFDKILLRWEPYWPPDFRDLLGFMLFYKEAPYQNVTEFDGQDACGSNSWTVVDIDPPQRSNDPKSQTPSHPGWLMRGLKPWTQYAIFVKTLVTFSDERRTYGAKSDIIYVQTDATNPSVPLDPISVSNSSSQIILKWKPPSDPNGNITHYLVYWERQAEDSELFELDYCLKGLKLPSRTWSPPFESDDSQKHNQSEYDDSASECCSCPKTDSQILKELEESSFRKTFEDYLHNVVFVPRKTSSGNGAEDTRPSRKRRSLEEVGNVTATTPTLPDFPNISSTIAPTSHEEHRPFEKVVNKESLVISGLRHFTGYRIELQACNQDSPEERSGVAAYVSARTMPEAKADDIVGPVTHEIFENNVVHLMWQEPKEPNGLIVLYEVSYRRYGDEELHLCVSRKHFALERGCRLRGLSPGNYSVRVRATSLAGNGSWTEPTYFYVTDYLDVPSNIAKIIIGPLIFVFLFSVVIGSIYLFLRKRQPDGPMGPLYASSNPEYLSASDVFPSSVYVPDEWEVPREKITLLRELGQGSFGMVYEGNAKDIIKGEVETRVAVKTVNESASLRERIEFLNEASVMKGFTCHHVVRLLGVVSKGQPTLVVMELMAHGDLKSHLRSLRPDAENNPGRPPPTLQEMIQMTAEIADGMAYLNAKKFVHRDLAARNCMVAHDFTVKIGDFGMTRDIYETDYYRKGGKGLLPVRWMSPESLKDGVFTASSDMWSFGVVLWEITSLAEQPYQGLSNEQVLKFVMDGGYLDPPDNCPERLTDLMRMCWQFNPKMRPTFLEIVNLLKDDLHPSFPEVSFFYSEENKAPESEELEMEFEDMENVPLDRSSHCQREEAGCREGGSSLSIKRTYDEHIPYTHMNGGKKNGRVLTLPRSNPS

Chain of insulin receptor A (P06213 other isoform, or with tags, fused parts or gaps limits assumed): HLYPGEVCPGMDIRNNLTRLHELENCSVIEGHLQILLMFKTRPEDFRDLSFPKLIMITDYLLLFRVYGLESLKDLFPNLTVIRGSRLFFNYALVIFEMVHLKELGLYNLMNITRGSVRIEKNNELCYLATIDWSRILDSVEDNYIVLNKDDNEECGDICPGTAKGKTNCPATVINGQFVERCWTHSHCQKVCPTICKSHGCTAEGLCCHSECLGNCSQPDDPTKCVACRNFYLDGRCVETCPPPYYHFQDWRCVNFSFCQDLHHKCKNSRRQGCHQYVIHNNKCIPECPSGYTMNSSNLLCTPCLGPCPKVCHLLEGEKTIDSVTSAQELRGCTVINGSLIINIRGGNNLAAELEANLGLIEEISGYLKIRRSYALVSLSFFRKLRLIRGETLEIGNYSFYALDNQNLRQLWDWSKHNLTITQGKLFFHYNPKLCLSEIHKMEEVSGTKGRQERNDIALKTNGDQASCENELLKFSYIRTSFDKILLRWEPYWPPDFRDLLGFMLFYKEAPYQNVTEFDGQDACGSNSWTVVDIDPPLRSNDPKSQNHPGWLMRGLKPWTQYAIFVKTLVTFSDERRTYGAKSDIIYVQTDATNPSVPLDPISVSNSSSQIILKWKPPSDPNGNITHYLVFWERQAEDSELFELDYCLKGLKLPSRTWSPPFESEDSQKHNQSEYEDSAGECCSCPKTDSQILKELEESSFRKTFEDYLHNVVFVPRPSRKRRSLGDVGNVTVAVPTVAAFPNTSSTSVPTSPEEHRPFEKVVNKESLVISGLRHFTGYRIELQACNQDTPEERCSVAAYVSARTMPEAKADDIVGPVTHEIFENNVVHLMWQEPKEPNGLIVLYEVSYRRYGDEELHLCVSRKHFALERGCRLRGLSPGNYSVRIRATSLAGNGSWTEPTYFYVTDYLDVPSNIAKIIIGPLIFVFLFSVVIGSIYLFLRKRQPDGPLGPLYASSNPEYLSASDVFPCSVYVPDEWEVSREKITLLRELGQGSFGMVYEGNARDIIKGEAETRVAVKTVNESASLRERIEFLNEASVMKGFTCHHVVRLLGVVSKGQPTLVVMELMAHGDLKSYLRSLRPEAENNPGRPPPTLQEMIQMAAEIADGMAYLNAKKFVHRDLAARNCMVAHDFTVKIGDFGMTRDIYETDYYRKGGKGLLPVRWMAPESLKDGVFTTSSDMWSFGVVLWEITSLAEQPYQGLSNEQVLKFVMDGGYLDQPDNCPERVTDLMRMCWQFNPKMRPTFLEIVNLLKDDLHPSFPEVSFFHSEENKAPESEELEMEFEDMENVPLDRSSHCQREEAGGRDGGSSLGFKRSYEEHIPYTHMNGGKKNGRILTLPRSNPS

Binder	Insulin receptor affinity [IC50 relative to HI (%)] (insulin receptor A)	Lipogenesis in rat adipocytes [Potency (%)] Mean Value [1]
A14E, A21Q, A22(G)18, A40K^, B25H, B29R, desB30 human insulin/(227A, 234A, 235K hIgG4-Fc(228-447)) 4-[bis[2-[(2-acetyl)amino]ethyl]amino]-4-oxo-butanoyl … (other, Cys229 (EU numbering) sulphur bound to an acetyl arm of the linker; A40K N(eps) acylated by the trivalent linker 4-[bis[2-[(2-acetyl)amino]ethyl]amino]-4-oxo-butanoyl, also called Ex 5.21) chain 1: GIVEQCCTSICSLEQLENYCQGGGGGGGGGGGGGGGGGGK chain 2: FVNQHLCGSHLVEALYLVCGERGFHYTPR chain 3: ASCPAPEAKGGPSVFLFPPKPKDTLMISRTPEVTCVVVDVSQEDPEVQFNWYVDGVEVHNAKTKPREEQFNSTYRVVSVLTVLHQDWLNGKEYKCKVSNKGLPSSIEKTISKAKGQPREPQVYTLPPSQEEMTKNQVSLTCLVKGFYPSDIAVEWESNGQPENNYKTTPPVLDSDGSFFLYSRLTVDKSRWQEGNVFSCSVMHEALHNHYTQKSLSLSLGK	2.1%	0.95 % of human insulin
A14E, A21G, A22(GQEP)3, A34G, A35Q, A36E, A37K^, A38P, B25H, B29R, desB30 human insulin/(227A, 234A, 235K hIgG4-Fc(228-447)) … (other, Cys229 (EU numbering) sulphur bound to an acetyl arm of the linker; A37K N(eps) acylated by the trivalent linker 4-[bis[2-[(2-acetyl)amino]ethyl]amino]-4-oxo-butanoyl, also called Ex 5.10) chain 1: GIVEQCCTSICSLEQLENYCGGQEPGQEPGQEPGQEKP chain 2: FVNQHLCGSHLVEALYLVCGERGFHYTPR chain 3: ASCPAPEAKGGPSVFLFPPKPKDTLMISRTPEVTCVVVDVSQEDPEVQFNWYVDGVEVHNAKTKPREEQFNSTYRVVSVLTVLHQDWLNGKEYKCKVSNKGLPSSIEKTISKAKGQPREPQVYTLPPSQEEMTKNQVSLTCLVKGFYPSDIAVEWESNGQPENNYKTTPPVLDSDGSFFLYSRLTVDKSRWQEGNVFSCSVMHEALHNHYTQKSLSLSLGK	2.47%	
A14E, A21G, A22(GQEP)19, A98K^, A99P, B3Q, B25H, B29R, desB30 human insulin/(227A, 234A, 235K hIgG4-Fc(228-447)) … (other, Cys229 (EU numbering) sulphur bound to an acetyl arm of the linker; A98K N(eps) acylated by the trivalent linker 4-[bis[2-[(2-acetyl)amino]ethyl]amino]-4-oxo-butanoyl, also called Ex 5.6) chain 1: GIVEQCCTSICSLEQLENYCGGQEPGQEPGQEPGQEPGQEPGQEPGQEPGQEPGQEPGQEPGQEPGQEPGQEPGQEPGQEPGQEPGQEPGQEPGQEPKP chain 2: FVQQHLCGSHLVEALYLVCGERGFHYTPR chain 3: ASCPAPEAKGGPSVFLFPPKPKDTLMISRTPEVTCVVVDVSQEDPEVQFNWYVDGVEVHNAKTKPREEQFNSTYRVVSVLTVLHQDWLNGKEYKCKVSNKGLPSSIEKTISKAKGQPREPQVYTLPPSQEEMTKNQVSLTCLVKGFYPSDIAVEWESNGQPENNYKTTPPVLDSDGSFFLYSRLTVDKSRWQEGNVFSCSVMHEALHNHYTQKSLSLSLGK	5.07%	
A14E, A21G, A22(GQAPGQEP)6, A70K^, A71P, B25H, B29R, desB30 human insulin/(227A, 234A, 235K hIgG4-Fc(228-447)) … (other, Cys229 (EU numbering) sulphur bound to an acetyl arm of the linker; A70K N(eps) acylated by the trivalent linker 4-[bis[2-[(2-acetyl)amino]ethyl]amino]-4-oxo-butanoyl, also called Ex 5.9) chain 1: GIVEQCCTSICSLEQLENYCGGQAPGQEPGQAPGQEPGQAPGQEPGQAPGQEPGQAPGQEPGQAPGQEPKP chain 2: FVNQHLCGSHLVEALYLVCGERGFHYTPR chain 3: ASCPAPEAKGGPSVFLFPPKPKDTLMISRTPEVTCVVVDVSQEDPEVQFNWYVDGVEVHNAKTKPREEQFNSTYRVVSVLTVLHQDWLNGKEYKCKVSNKGLPSSIEKTISKAKGQPREPQVYTLPPSQEEMTKNQVSLTCLVKGFYPSDIAVEWESNGQPENNYKTTPPVLDSDGSFFLYSRLTVDKSRWQEGNVFSCSVMHEALHNHYTQKSLSLSLGK	2.96%	3.02 % of human insulin
(A1(N(alpha)acetyl), A14E, A21G, A22(GQAP)19, A98K^, A99P, B1(N(alpha)acetyl), B25H, B29R, desB30 human insulin)/(227A, 234A, 235K, 297E, 315Q, 384Q, des447 … (other, Cys229 (EU numbering) sulphur bound to an acetyl arm of the linker; B1 N(alpha)-acetyl; A1 N(alpha)-acetyl; A98K N(eps) acylated by the trivalent linker 4-[bis[2-[(2-acetyl)amino]ethyl]amino]-4-oxo-butanoyl, Chemical insulin-Fc conjugate; also called Ex 5.27) chain 1: GIVEQCCTSICSLEQLENYCGGQAPGQAPGQAPGQAPGQAPGQAPGQAPGQAPGQAPGQAPGQAPGQAPGQAPGQAPGQAPGQAPGQAPGQAPGQAPKP chain 2: FVNQHLCGSHLVEALYLVCGERGFHYTPR chain 3: ASCPAPEAKGGPSVFLFPPKPKDTLMISRTPEVTCVVVDVSQEDPEVQFNWYVDGVEVHNAKTKPREEQFESTYRVVSVLTVLHQDWLQGKEYKCKVSNKGLPSSIEKTISKAKGQPREPQVYTLPPSQEEMTKNQVSLTCLVKGFYPSDIAVEWESQGQPENNYKTTPPVLDSDGSFFLYSRLTVDKSRWQEGNVFSCSVMHEALHNHYTQKSLSLSLG	1.07%	
(A14E, A21G, A22(GQEP)19, 98K^, A99P, B25H, B29R, desB30 human insulin)/(226A, 227G, 228P, 234A, 235K, des447 hIgG4-Fc(228-447)) … (other, Cys229 (EU numbering) sulphur bound to an acetyl arm of the linker; A98K N(eps) acylated by the trivalent linker 3,5-bis[(2-acetyl)amino]benzoyl) chain 1: GIVEQCCTSICSLEQLENYCGGQEPGQEPGQEPGQEPGQEPGQEPGQEPGQEPGQEPGQEPGQEPGQEPGQEPGQEPGQEPGQEPGQEPGQEPGQEPKP chain 2: FVNQHLCGSHLVEALYLVCGERGFHYTPR chain 3: AGPCPAPEAKGGPSVFLFPPKPKDTLMISRTPEVTCVVVDVSQEDPEVQFNWYVDGVEVHNAKTKPREEQFNSTYRVVSVLTVLHQDWLNGKEYKCKVSNKGLPSSIEKTISKAKGQPREPQVYTLPPSQEEMTKNQVSLTCLVKGFYPSDIAVEWESNGQPENNYKTTPPVLDSDGSFFLYSRLTVDKSRWQEGNVFSCSVMHEALHNHYTQKSLSLSLG	3.85%	
